From patent US20220288226A1 (ENOSI LIFE SCIENCES, published 2022)
Each block holds one binder with its values, some of them ahead of it.

How the values were obtained:
TNFR1 on cells = biological target: T1, TNFR1 on cells (human, UniProt P19438 30-455); experiment: cell-based or functional assay
T1 sequence: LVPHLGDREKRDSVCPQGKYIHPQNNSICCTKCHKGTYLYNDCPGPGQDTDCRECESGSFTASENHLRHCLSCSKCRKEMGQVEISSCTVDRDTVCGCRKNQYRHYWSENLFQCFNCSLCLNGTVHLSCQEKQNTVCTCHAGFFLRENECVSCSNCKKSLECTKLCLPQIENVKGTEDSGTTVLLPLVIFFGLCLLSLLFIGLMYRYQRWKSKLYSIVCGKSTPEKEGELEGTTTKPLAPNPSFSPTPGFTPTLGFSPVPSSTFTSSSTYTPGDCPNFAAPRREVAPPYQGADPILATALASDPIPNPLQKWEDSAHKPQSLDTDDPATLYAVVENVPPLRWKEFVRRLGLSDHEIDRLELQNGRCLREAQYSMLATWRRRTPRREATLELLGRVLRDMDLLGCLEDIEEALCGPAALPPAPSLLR

[1] = biological target: T2, extracellular domain of TNFR-1 (human, UniProt P19438 30-211); experiment: SPR (Biacore), Vhh on TNFR1 extracellular domain
T2 construct: The construct limits, tag, supplier and species are not restated there; also called TNFR1 extracellular domain; tumor necrosis factor receptor-1 (TNFR1)
T2 sequence: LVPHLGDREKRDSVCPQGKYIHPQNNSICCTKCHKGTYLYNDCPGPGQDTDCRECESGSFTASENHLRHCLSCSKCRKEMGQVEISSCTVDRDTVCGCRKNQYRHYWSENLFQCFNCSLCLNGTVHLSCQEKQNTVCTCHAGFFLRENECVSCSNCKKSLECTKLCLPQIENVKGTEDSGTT
Procedure: (§1) Each of Vhh 1-4 subsequently was tested in binding studies using the surface plasmon resonance (SPR) method (Sciences GL. Biacore Assay Handbook. General Electric Company (2012); and Richter et al. (2019) MAbs 11:166-177). Competition assays of Vhh inhibition of TNF-a binding to TNFR1 extracellular domain also were performed as described in Richter et al. (2019).

[2] = biological target: T2, extracellular domain of TNFR-1; experiment: competition assay, Vhh inhibition of TNF binding to TNFR1; competitor TNF-a
Procedure: as §1

TNF Dependent Bioassay (IC50): VCAM (TNFR1 on cells): 3 nM
Kd [1]: 1000 nM
B1: Vhh-2 (VHH, not shown: small tags and cut ends)
VHH: EVQLLESGGGLVQPGGSLRLSCAASGFTFSQYRMHWVRQAPGKSLEWVSSIDTRGSSTYYADPVKGRFTISRDNSKNTLYLQMNSLRAEDTAVYYCAKAVTMFSPFFDYWGQGTLV
notes: it is placed last only by convention; also called Recombinant human anti-TNFRSF1A single domain antibody

IC50 [2]: ~1 nM
TNF Dependent Bioassay (IC50): VCAM (TNFR1 on cells): 0.3 nM
Kd [1]: 0.00066 nM
B2: Vhh-4 (VHH)
VHH: EVQLLESGGGLVQPGGSLRLSCAASGFTFAHETMVWVRQAPGKGLEWVSHIPPDGQDPFYADSVKGRFTISRDNSKNTLYLQMNSLRAEDTAVYHCALLPKRGPWFDYWGQGTLVTVSS
notes: also called DOM1h-131-206
